Test results: PMC2901396

Molecular target: DNA polymerase gamma catalytic subunit p140, Exo- R964C (Homo sapiens, UniProt P54098 26-1239, D198A;E200A;R964C)
Assay: EMSA

Chain of DNA polymerase gamma catalytic subunit p140, Exo- R964C (P54098 26-1239 D198A/E200A/R964C): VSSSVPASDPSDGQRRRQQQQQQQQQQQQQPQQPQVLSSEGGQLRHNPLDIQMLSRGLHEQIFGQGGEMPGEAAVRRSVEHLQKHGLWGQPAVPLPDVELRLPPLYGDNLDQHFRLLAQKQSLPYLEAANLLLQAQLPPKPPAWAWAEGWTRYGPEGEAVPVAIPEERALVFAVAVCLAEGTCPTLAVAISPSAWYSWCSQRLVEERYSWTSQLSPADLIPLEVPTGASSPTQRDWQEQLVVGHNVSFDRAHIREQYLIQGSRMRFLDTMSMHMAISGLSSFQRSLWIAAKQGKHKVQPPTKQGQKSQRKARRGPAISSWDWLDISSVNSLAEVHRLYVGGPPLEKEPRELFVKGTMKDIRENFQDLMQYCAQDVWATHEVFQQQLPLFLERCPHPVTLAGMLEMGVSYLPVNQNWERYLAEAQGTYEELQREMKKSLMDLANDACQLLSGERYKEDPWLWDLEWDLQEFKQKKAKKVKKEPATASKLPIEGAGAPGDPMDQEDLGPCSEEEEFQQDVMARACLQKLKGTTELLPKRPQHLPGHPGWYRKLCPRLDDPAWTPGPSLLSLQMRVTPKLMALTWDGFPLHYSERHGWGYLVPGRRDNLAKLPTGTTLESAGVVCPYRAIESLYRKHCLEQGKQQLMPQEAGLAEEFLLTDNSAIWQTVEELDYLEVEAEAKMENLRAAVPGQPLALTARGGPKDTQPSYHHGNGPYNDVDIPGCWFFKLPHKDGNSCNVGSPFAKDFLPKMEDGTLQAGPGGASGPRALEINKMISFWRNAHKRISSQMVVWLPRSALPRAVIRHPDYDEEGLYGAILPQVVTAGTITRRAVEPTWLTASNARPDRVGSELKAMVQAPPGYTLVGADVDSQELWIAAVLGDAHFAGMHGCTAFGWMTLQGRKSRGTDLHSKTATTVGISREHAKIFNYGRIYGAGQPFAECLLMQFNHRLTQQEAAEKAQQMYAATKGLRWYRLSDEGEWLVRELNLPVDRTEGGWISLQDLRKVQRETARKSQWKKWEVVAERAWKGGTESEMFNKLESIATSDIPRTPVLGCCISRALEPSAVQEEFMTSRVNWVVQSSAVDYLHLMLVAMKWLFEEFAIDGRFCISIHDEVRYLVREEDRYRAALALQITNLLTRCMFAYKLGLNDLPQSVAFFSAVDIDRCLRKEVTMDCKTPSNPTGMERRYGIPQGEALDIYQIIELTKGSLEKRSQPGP

B1: 38-mer/34-mer primer-template (dsDNA)
DNA 1: TTATCGCACCTACGTTCAATATTACAGGCGAACATACT
DNA 2: GTATGTTCGCCTGTAATATTGAACGTAGGTGCGA
**Q.** Which Kd does the source give for B1 here?
**A.** Its Kd is 75 ± 4 nM.
